Experimental data from paper PMC2865256 (Journal of immunology (Baltimore, Md. : 1950), 2009).

Target: T1, mouse HVEM on splenic T cells (mouse (endogenous in splenic T cells), UniProt Q80WM9 39-275)
T1 sequence (looked up): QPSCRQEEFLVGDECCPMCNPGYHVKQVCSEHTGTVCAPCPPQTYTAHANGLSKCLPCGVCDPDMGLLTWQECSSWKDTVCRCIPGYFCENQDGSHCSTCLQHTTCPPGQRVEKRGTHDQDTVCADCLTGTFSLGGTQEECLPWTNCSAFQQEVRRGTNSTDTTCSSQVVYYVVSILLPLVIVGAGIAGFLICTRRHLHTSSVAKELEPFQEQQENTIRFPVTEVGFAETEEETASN
Assay: flow cytometry on cells

B1: mouse BTLA-Fc (Fc fusion, UniProt Q7TSA3 30-183, looked up)
chain: EKATKRNDEECPVQLTITRNSKQSARTGELFKIQCPVKYCVHRPNVTWCKHNGTICVPLEVSPQLYTSWEENQSVPVFVLHFKPIHLSDNGSYSCSTNFNSQVINSHSVTIHVRERTQNSSEHPLITVSDIPDATNASGPSTMEERPGRTWLLY
In the case of B1, the “MFI ratio of Btla-/- T cells to WT T cells” value is reported as 4.4.
